Data taken from the supplement of paper PMC10567573.
± gives the standard deviation.

Assay: protein stability index of a GFP-peptide fusion (GPS, HEK-293T) (PSI 1-6); higher = more stable
Details: c terminus: a fixed tail appended
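Also: 24-mer peptide tiles fused after GFP, lentivirally expressed, FACS-sorted into six equal bins by GFP/DsRed ratio, decoded by Illumina sequencing, PSI is the read-weighted mean bin number.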

Sequence | protein stability index (treatment: DMSO) | protein stability index (treatment: MLN4924 1 uM, 8 h)
PNAFIGSDVVDWLYHNVEGFTDRR [DVL3] | 3.13 ± 0.26 | 3.15 ± 0.32
PNLSLASEDEEEYESGYAFLPDLL [SMG5] | 4.32 ± 0.2 | 4.47 ± 0.15
PPVPCVPSVPCTPAPQVGTQIRTI [KRT36] | 4.46 ± 0.22 | 4.31 ± 0.2
PQQAPQDDGSQDPEVLDRESRDRP [PWWP2B] | 5.63 ± 0.29 | 5.47 ± 0.14
PQVLSQEFTELLKVMIHPDPERRP [WEE1] | 3.45 ± 0.17 | 3.43 ± 0.16
PRCPRMVLSLKEGAREEDLDAVEA [FBXO3] | 5.32 ± 0.36 | 5.27 ± 0.17
PRGKPPLNTRSQAPLLRWVLTLSF [HMOX1] | 2.81 ± 0.28 | 3.1 ± 0.61
PRGSETERLLTPNPGYGTQAGPSP [MCOLN1] | 4.41 ± 0.18 | 4.79 ± 0.28
PRHPIRALVGDEVELPCRISPGKN [MOG] | 4.62 ± 0.17 | 4.72 ± 0.21
PSDKMKWCLRVNPKGLDDESKDYL [SPOPL] | 3.22 ± 0.34 | 3.81 ± 0.47
PSEHVQGKSPVNMVTVAMVAGQCE [ZNF649] | 4.14 ± 0.34 | 4.26 ± 0.14
PSFHPHAGGGSQENLDNDTETDSL [DVL3] | 5.58 ± 0.31 | 5.5 ± 0.29
PSLPAAGEQDCCGERVVINISGLR [KCNA3] | 3.79 ± 0.36 | 3.76 ± 0.29
PSSFPSSSSSSSSSCYPLIPSTPE [MAGEA10] | 4.32 ± 0.36 | 4.45 ± 0.13
PSSLSSSEGSSSSSSSSSSSSSSA [NFE2L1] | 5.51 ± 0.22 | 5.47 ± 0.12
PSTTERISTSGQAGTSSHGCWAWP [PXN] | 3.04 ± 0.21 | 3.17 ± 0.23
PTHTPRPADFSLGSLPGPGQTSGA [VENTX] | 4.44 ± 0.18 | 4.5 ± 0.2
PTQQDVLRTRVKTTGIVETHFTFK [GNAI1] | 3.05 ± 0.42 | 3.51 ± 0.37
PVSCCLGLLLESLVPFIVNDNITN [DYNC2LI1] | 2.57 ± 0.94 | 2.79 ± 0.58
PWLCGESFTLADVSLAVTLHRLKF [GDAP1] | 2.65 ± 0.43 | 2.35 ± 0.41
PYGVYKKQQKDPSEEAAVLQYASL [ATE1] | 3.62 ± 0.23 | 3.8 ± 0.5
QAAKLLGSMEQVSSHFLEQTLDKK [INTS4] | 3.78 ± 0.12 | 3.88 ± 0.36

Sequence | protein stability index (treatment: DMSO) | protein stability index (treatment: MLN4924 1 uM, 8 h)
QALQHVQASCDEAHKMKFSDLFSL [INTS3] | 2.86 ± 0.39 | 2.95 ± 0.33
QASEREAPSIEQRLQEVRESIRRA [FCHSD1] | 5.06 ± 0.35 | 5 ± 0.31
QCGETMKETVNVKTVCGYYTSAGT [GMCL1] | 3.7 ± 0.22 | 3.77 ± 0.28
QDACQAQAREKELLELQSQQACTH [CCDC89] | 4.91 ± 0.29 | 4.9 ± 0.2
QDEPRQGCQPEDRRRRIIINVGGI [KCNG1] | 3.92 ± 0.33 | 4.02 ± 0.2
QEEAIAQFPYVEFTGRDSITCLTC [TMEM106C] | 2.5 ± 0.21 | 2.57 ± 0.24
QESYENVDSLESHIPSQEVPGTQV [ZNF263] | 5.42 ± 0.22 | 5.28 ± 0.22
QGKLIKRQRLAKNDRGDHYHWKDL [EFHC1] | 3.36 ± 0.48 | 3.71 ± 0.31
QGPPMVPPYQGGPPRPPMGMRPPV [ZNF207] | 4.31 ± 0.12 | 4.18 ± 0.081
QGSRGLTDQAIFYAVTPLPWCPHL [HDAC6] | 2.64 ± 0.66 | 2.41 ± 0.46
QHKDQTAALPLAAEETANLPPSPP [MAP2] | 5.49 ± 0.086 | 5.45 ± 0.12
QIEYEYKLAQALHEMREQHDAQVR [LMNB1] | 3.83 ± 0.38 | 3.83 ± 0.34
QIFFGRRKDMIAEKLAPSEITEEL [ZNF396] | 3.85 ± 0.14 | 3.74 ± 0.13
QIKAIRGSNEYTEGPSVVKRPAPR [SPRY1] | 4.05 ± 0.09 | 4.47 ± 0.3
QKILCAKAENARLVVNIDNAKLAS [KRT34] | 3.49 ± 0.2 | 3.56 ± 0.11
QLGTLAGSKYYNVEAMYCYLRCIQ [SMG5] | 2.68 ± 0.29 | 2.3 ± 0.41
QLKIAANPFAKGFRENGRNCKRER [TBX6] | 3.33 ± 0.25 | 3.47 ± 0.33
QLQHEKAELEQHLEQEQEFQVNKL [CCDC6] | 5.35 ± 0.19 | 5.41 ± 0.24
QLSELRSEMECQNQEYKMLLDIKT [KRT13] | 4.09 ± 0.12 | 4 ± 0.29
QMKQKVQSLYQEVFGRLRDENGRP [NFE2L1] | 2.66 ± 0.35 | 3.65 ± 0.48
QNIYKCIMLKNISQDERLDVLLTL [IQUB] | 2.5 ± 0.098 | 2.61 ± 0.51
QNSRNKRAVQGPEETVTQDCLQLI [TNFSF13B] | 4.55 ± 0.057 | 4.68 ± 0.12

Sequence | protein stability index (treatment: DMSO) | protein stability index (treatment: MLN4924 1 uM, 8 h)
QPCNPPAPAGDKGFQPPSPSLRPR [DMRTC1] | 5.27 ± 0.14 | 5.15 ± 0.19
QPKKPEDEPQETAYRTQVSSCCLH [PKD2L1] | 4.88 ± 0.27 | 4.96 ± 0.05
QPLEVKNNSNLQRMGSSESTDSGF [CDC25A] | 5.28 ± 0.23 | 5.06 ± 0.49
QPPLSATVTLTVAVADSIPQVLAD [PCDHGA10] | 2.56 ± 0.24 | 2.7 ± 0.36
QQAMSLAILRVIRLVRVFRIFKLS [KCNA3] | 2.69 ± 0.26 | 2.63 ± 0.44
QQEVVVAGSSLPTSSKVNATVPSN [ACBD3] | 5.12 ± 0.34 | 4.98 ± 0.23
QQIEEQRVQVQVVERAQQVAVQEQ [FLOT1] | 5.17 ± 0.41 | 5.03 ± 0.32
QQVDTNISVILPTVHEVDIFRCFC [DENND6A] | 1.98 ± 0.31 | 2.24 ± 0.47
QRKKWVDLAWMITFYVRFFLTYVP [FADS1] | 2.79 ± 0.29 | 2.83 ± 0.44
QRLLFSGASDNSIIMWDIGGRKGR [WDFY1] | 3.16 ± 0.55 | 3.39 ± 0.46
QSLLQPKSSSVDSELTSLCQSVLE [SMG5] | 3.88 ± 0.26 | 3.94 ± 0.21
QSPTLEFLLRNSQRTVGQLMELCR [EDARADD] | 2.49 ± 0.21 | 2.56 ± 0.26
QTEKLDTNITEVDAASVYTLPAGA [CASP6] | 5.02 ± 0.2 | 4.81 ± 0.12
QTEPQDRSPAPMSCDKSTQTPSPP [BCL2L11] | 5.58 ± 0.14 | 5.38 ± 0.23
QTPEQYYFCYKAILEFAEKEGMVS [PTPN9] | 2.12 ± 0.47 | 2.22 ± 0.35
QTRMAVSLTAAETLALQGTQGQEK [ZNF232] | 5.15 ± 0.24 | 4.98 ± 0.21
QVADINDNPPTFSQVSYFTYIPEN [PCDHGA10] | 2.98 ± 0.32 | 3.09 ± 0.3
QVKFGQQNPRQVAQSEAEKKLKKD [ZC3H15] | 5.37 ± 0.25 | 5.37 ± 0.076
QVMVSGPNLNETSIVSGGYGGSGD [ARFIP2] | 4.24 ± 0.29 | 4.41 ± 0.41
QVQSLITNVESQLAEIRCDLERQN [KRT34] | 3.43 ± 0.21 | 3.66 ± 0.33
RAARDYKIQNHGHRVLQRLEQRRQ [FCHSD1] | 3.82 ± 0.079 | 4.07 ± 0.26
